Reference: the supplement of paper PMC9112550, “Optimization of the antimicrobial peptide Bac7 by deep mutational scanning” (BMC Biology, 2022)

Test system: Escherichia coli TOP10
Assay: shrunken log2 fold change of peptide-encoding DNA abundance (4.5 h post-induction vs induction); higher = less antimicrobial activity (less host growth inhibition)
Details: time post-induction: 4.5 h; library: site-saturation at positions 5, 18, 19, 20
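Note: peptides expressed intracellularly from a pBAD plasmid library in pooled LB shake-flask culture, induced with 0.3% L-arabinose, DNA abundance read by NGS, three biological replicates, DESeq2 with apeglm shrinkage.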

RRIRPRPPRLPRPRPRPMGWPRP
shrunken log2 fold change: 0.217

RRIRPRPPRLPRPRPRPMKMPRP
shrunken log2 fold change: -0.148

RRIRPRPPRLPRPRPRPMKSPRP
shrunken log2 fold change: -0.0679

RRIRPRPPRLPRPRPRPMKYPRP
shrunken log2 fold change: -0.157

RRIRPRPPRLPRPRPRPMLPPRP
shrunken log2 fold change: 0.0406

RRIRPRPPRLPRPRPRPMMDPRP
shrunken log2 fold change: 0.0321

RRIRPRPPRLPRPRPRPMNCPRP
shrunken log2 fold change: -0.138

RRIRPRPPRLPRPRPRPMNDPRP
shrunken log2 fold change: -0.329

RRIRPRPPRLPRPRPRPMNEPRP
shrunken log2 fold change: -0.0529

RRIRPRPPRLPRPRPRPMPIPRP
shrunken log2 fold change: 0.0579

RRIRPRPPRLPRPRPRPMQAPRP
shrunken log2 fold change: -0.0135

RRIRPRPPRLPRPRPRPMQGPRP
shrunken log2 fold change: -0.146

RRIRPRPPRLPRPRPRPMQVPRP
shrunken log2 fold change: -0.012

RRIRPRPPRLPRPRPRPMRDPRP
shrunken log2 fold change: 0.467

RRIRPRPPRLPRPRPRPMSRPRP
shrunken log2 fold change: -0.0311

RRIRPRPPRLPRPRPRPMSTPRP
shrunken log2 fold change: -0.229

RRIRPRPPRLPRPRPRPMTKPRP
shrunken log2 fold change: 0.0497

RRIRPRPPRLPRPRPRPMTNPRP
shrunken log2 fold change: -0.184

RRIRPRPPRLPRPRPRPMTQPRP
shrunken log2 fold change: 0.272

RRIRPRPPRLPRPRPRPMTSPRP
shrunken log2 fold change: 0.0205

RRIRPRPPRLPRPRPRPMVIPRP
shrunken log2 fold change: -0.0869

RRIRPRPPRLPRPRPRPNCAPRP
shrunken log2 fold change: 0.208

RRIRPRPPRLPRPRPRPNCCPRP
shrunken log2 fold change: 0.187

RRIRPRPPRLPRPRPRPNDQPRP
shrunken log2 fold change: 1.93

RRIRPRPPRLPRPRPRPNEHPRP
shrunken log2 fold change: -0.263

RRIRPRPPRLPRPRPRPNETPRP
shrunken log2 fold change: 0.0335

RRIRPRPPRLPRPRPRPNEVPRP
shrunken log2 fold change: 0.292

RRIRPRPPRLPRPRPRPNEYPRP
shrunken log2 fold change: -0.783

RRIRPRPPRLPRPRPRPNFCPRP
shrunken log2 fold change: 0.257

RRIRPRPPRLPRPRPRPNFQPRP
shrunken log2 fold change: -0.00527

RRIRPRPPRLPRPRPRPNGHPRP
shrunken log2 fold change: -0.0534

RRIRPRPPRLPRPRPRPNGTPRP
shrunken log2 fold change: 0.247

RRIRPRPPRLPRPRPRPNKRPRP
shrunken log2 fold change: -0.101

RRIRPRPPRLPRPRPRPNLGPRP
shrunken log2 fold change: -0.242

RRIRPRPPRLPRPRPRPNMEPRP
shrunken log2 fold change: 0.0784

RRIRPRPPRLPRPRPRPNMNPRP
shrunken log2 fold change: -0.584

RRIRPRPPRLPRPRPRPNMQPRP
shrunken log2 fold change: -0.313

RRIRPRPPRLPRPRPRPNMVPRP
shrunken log2 fold change: -0.772

RRIRPRPPRLPRPRPRPNNHPRP
shrunken log2 fold change: -0.607

RRIRPRPPRLPRPRPRPNNKPRP
shrunken log2 fold change: -0.542

RRIRPRPPRLPRPRPRPNNWPRP
shrunken log2 fold change: -0.173

RRIRPRPPRLPRPRPRPNPEPRP
shrunken log2 fold change: -0.0226

RRIRPRPPRLPRPRPRPNRLPRP
shrunken log2 fold change: -0.0308

RRIRPRPPRLPRPRPRPNRSPRP
shrunken log2 fold change: 0.16

RRIRPRPPRLPRPRPRPNSAPRP
shrunken log2 fold change: 0.204

RRIRPRPPRLPRPRPRPNSEPRP
shrunken log2 fold change: -0.211

RRIRPRPPRLPRPRPRPNSSPRP
shrunken log2 fold change: -0.396

RRIRPRPPRLPRPRPRPNVPPRP
shrunken log2 fold change: -0.11

RRIRPRPPRLPRPRPRPNWLPRP
shrunken log2 fold change: 0.124

RRIRPRPPRLPRPRPRPNWPPRP
shrunken log2 fold change: 0.0357

RRIRPRPPRLPRPRPRPNYNPRP
shrunken log2 fold change: -0.676

RRIRPRPPRLPRPRPRPPEIPRP
shrunken log2 fold change: -0.0297

RRIRPRPPRLPRPRPRPPERPRP
shrunken log2 fold change: 0.322

RRIRPRPPRLPRPRPRPPETPRP
shrunken log2 fold change: 0.407

RRIRPRPPRLPRPRPRPPFHPRP
shrunken log2 fold change: 0.011

RRIRPRPPRLPRPRPRPPGAPRP
shrunken log2 fold change: 0.806

RRIRPRPPRLPRPRPRPPGNPRP
shrunken log2 fold change: 0.105

RRIRPRPPRLPRPRPRPPIEPRP
shrunken log2 fold change: -0.0597

RRIRPRPPRLPRPRPRPPKFPRP
shrunken log2 fold change: 0.0927

RRIRPRPPRLPRPRPRPPKGPRP
shrunken log2 fold change: 0.308

RRIRPRPPRLPRPRPRPPMEPRP
shrunken log2 fold change: 0.127

RRIRPRPPRLPRPRPRPPPLPRP
shrunken log2 fold change: 0.699

RRIRPRPPRLPRPRPRPPPWPRP
shrunken log2 fold change: 0.588

RRIRPRPPRLPRPRPRPPSLPRP
shrunken log2 fold change: 0.381

RRIRPRPPRLPRPRPRPPSWPRP
shrunken log2 fold change: 0.54

RRIRPRPPRLPRPRPRPPTHPRP
shrunken log2 fold change: 0.317

RRIRPRPPRLPRPRPRPPTKPRP
shrunken log2 fold change: 0.268

RRIRPRPPRLPRPRPRPPTVPRP
shrunken log2 fold change: 0.279

RRIRPRPPRLPRPRPRPPWSPRP
shrunken log2 fold change: 0.00901

RRIRPRPPRLPRPRPRPPYYPRP
shrunken log2 fold change: -0.492

RRIRPRPPRLPRPRPRPQAIPRP
shrunken log2 fold change: 0.186

RRIRPRPPRLPRPRPRPQCIPRP
shrunken log2 fold change: -0.182

RRIRPRPPRLPRPRPRPQETPRP
shrunken log2 fold change: 0.134

RRIRPRPPRLPRPRPRPQEVPRP
shrunken log2 fold change: 0.0706

RRIRPRPPRLPRPRPRPQFYPRP
shrunken log2 fold change: -0.592

RRIRPRPPRLPRPRPRPQGFPRP
shrunken log2 fold change: -0.0446

RRIRPRPPRLPRPRPRPQGPPRP
shrunken log2 fold change: 0.0552

RRIRPRPPRLPRPRPRPQHHPRP
shrunken log2 fold change: -0.302

RRIRPRPPRLPRPRPRPQHNPRP
shrunken log2 fold change: -0.536

RRIRPRPPRLPRPRPRPQIYPRP
shrunken log2 fold change: -0.858

RRIRPRPPRLPRPRPRPQKPPRP
shrunken log2 fold change: 0.163

RRIRPRPPRLPRPRPRPQPAPRP
shrunken log2 fold change: 0.0892

RRIRPRPPRLPRPRPRPQRCPRP
shrunken log2 fold change: -0.0388

RRIRPRPPRLPRPRPRPQSCPRP
shrunken log2 fold change: -0.0478

RRIRPRPPRLPRPRPRPQSGPRP
shrunken log2 fold change: 0.259

RRIRPRPPRLPRPRPRPQSVPRP
shrunken log2 fold change: -0.0354

RRIRPRPPRLPRPRPRPQTDPRP
shrunken log2 fold change: -0.0886

RRIRPRPPRLPRPRPRPQTLPRP
shrunken log2 fold change: 0.000929

RRIRPRPPRLPRPRPRPQVMPRP
shrunken log2 fold change: -0.286

RRIRPRPPRLPRPRPRPQVNPRP
shrunken log2 fold change: -0.279

RRIRPRPPRLPRPRPRPQYAPRP
shrunken log2 fold change: -0.103

RRIRPRPPRLPRPRPRPQYMPRP
shrunken log2 fold change: -0.506

RRIRPRPPRLPRPRPRPRALPRP
shrunken log2 fold change: 0.388

RRIRPRPPRLPRPRPRPRAPPRP
shrunken log2 fold change: 0.683

RRIRPRPPRLPRPRPRPRCLPRP
shrunken log2 fold change: -0.0858

RRIRPRPPRLPRPRPRPRDDPRP
shrunken log2 fold change: 0.23

RRIRPRPPRLPRPRPRPRDPPRP
shrunken log2 fold change: 0.695

RRIRPRPPRLPRPRPRPREAPRP
shrunken log2 fold change: 0.44

RRIRPRPPRLPRPRPRPREPPRP
shrunken log2 fold change: 0.0876

RRIRPRPPRLPRPRPRPREQPRP
shrunken log2 fold change: 0.00917

RRIRPRPPRLPRPRPRPRESPRP
shrunken log2 fold change: 0.0752

RRIRPRPPRLPRPRPRPRHNPRP
shrunken log2 fold change: -0.0793

RRIRPRPPRLPRPRPRPRIEPRP
shrunken log2 fold change: 0.175

RRIRPRPPRLPRPRPRPRQNPRP
shrunken log2 fold change: 0.463

RRIRPRPPRLPRPRPRPRRCPRP
shrunken log2 fold change: 0.388

RRIRPRPPRLPRPRPRPRRHPRP
shrunken log2 fold change: 0.241

RRIRPRPPRLPRPRPRPRRVPRP
shrunken log2 fold change: 0.098

RRIRPRPPRLPRPRPRPRTWPRP
shrunken log2 fold change: 0.537

RRIRPRPPRLPRPRPRPRVKPRP
shrunken log2 fold change: -0.0194

RRIRPRPPRLPRPRPRPRVNPRP
shrunken log2 fold change: -0.194

RRIRPRPPRLPRPRPRPRWHPRP
shrunken log2 fold change: 0.186

RRIRPRPPRLPRPRPRPSCAPRP
shrunken log2 fold change: 0.0332

RRIRPRPPRLPRPRPRPSCDPRP
shrunken log2 fold change: -0.273

RRIRPRPPRLPRPRPRPSCTPRP
shrunken log2 fold change: -0.221

RRIRPRPPRLPRPRPRPSDGPRP
shrunken log2 fold change: -0.26

RRIRPRPPRLPRPRPRPSDMPRP
shrunken log2 fold change: -0.273

RRIRPRPPRLPRPRPRPSEDPRP
shrunken log2 fold change: 0.485

RRIRPRPPRLPRPRPRPSEPPRP
shrunken log2 fold change: -0.213

RRIRPRPPRLPRPRPRPSERPRP
shrunken log2 fold change: -0.0297

RRIRPRPPRLPRPRPRPSGFPRP
shrunken log2 fold change: 0.241

RRIRPRPPRLPRPRPRPSHEPRP
shrunken log2 fold change: 0.0992

RRIRPRPPRLPRPRPRPSHRPRP
shrunken log2 fold change: 0.0628

RRIRPRPPRLPRPRPRPSHSPRP
shrunken log2 fold change: -0.368

RRIRPRPPRLPRPRPRPSKEPRP
shrunken log2 fold change: -0.374

RRIRPRPPRLPRPRPRPSKFPRP
shrunken log2 fold change: -0.494

RRIRPRPPRLPRPRPRPSLCPRP
shrunken log2 fold change: -0.0173

RRIRPRPPRLPRPRPRPSMHPRP
shrunken log2 fold change: 0.828

RRIRPRPPRLPRPRPRPSMPPRP
shrunken log2 fold change: -0.208

RRIRPRPPRLPRPRPRPSMYPRP
shrunken log2 fold change: -0.676

RRIRPRPPRLPRPRPRPSNPPRP
shrunken log2 fold change: -0.0794

RRIRPRPPRLPRPRPRPSNRPRP
shrunken log2 fold change: -0.783

RRIRPRPPRLPRPRPRPSPEPRP
shrunken log2 fold change: -0.0109

RRIRPRPPRLPRPRPRPSQHPRP
shrunken log2 fold change: -0.278

RRIRPRPPRLPRPRPRPSSIPRP
shrunken log2 fold change: -0.824

RRIRPRPPRLPRPRPRPSVEPRP
shrunken log2 fold change: -0.00032

RRIRPRPPRLPRPRPRPSVSPRP
shrunken log2 fold change: -0.504

RRIRPRPPRLPRPRPRPSVWPRP
shrunken log2 fold change: -0.0905

RRIRPRPPRLPRPRPRPSWEPRP
shrunken log2 fold change: 0.245

RRIRPRPPRLPRPRPRPSYGPRP
shrunken log2 fold change: -0.2

RRIRPRPPRLPRPRPRPTCHPRP
shrunken log2 fold change: 1.02

RRIRPRPPRLPRPRPRPTDIPRP
shrunken log2 fold change: -0.241

RRIRPRPPRLPRPRPRPTEHPRP
shrunken log2 fold change: -0.1

RRIRPRPPRLPRPRPRPTFMPRP
shrunken log2 fold change: 0.0861

RRIRPRPPRLPRPRPRPTFPPRP
shrunken log2 fold change: 0.025

RRIRPRPPRLPRPRPRPTGFPRP
shrunken log2 fold change: 0.0273

RRIRPRPPRLPRPRPRPTHDPRP
shrunken log2 fold change: 0.258

RRIRPRPPRLPRPRPRPTHEPRP
shrunken log2 fold change: 0.466

RRIRPRPPRLPRPRPRPTHGPRP
shrunken log2 fold change: 0.478

RRIRPRPPRLPRPRPRPTHPPRP
shrunken log2 fold change: 0.653

RRIRPRPPRLPRPRPRPTLVPRP
shrunken log2 fold change: 0.114
